Measured values: patent publication US10159707B2, “Treatment of cancers with immunostimulatory HIV Tat derivative polypeptides” (PIN Pharma, Inc., priority 2013, dated 2018)
Entries after “also recorded” stand apart in the source; their conditions may differ.

How the values were obtained:
Human monocytes = assay: CD86 expression of human monocytes cultured with Tat derivative; format: cell-based; settings: cultured 24-48 hours; fluorescent-labeled CD86; compared with ISS (TLR) or LPS
Experimental: Human monocytes were cultured for 24-48 hours with a Tat derivative (Nani-P2), an immunostimulatory sequence (ISS) of a toll-like receptor (TLR) (FIG. 1), or lipopolysaccharide (LPS) (FIG. 2) and the cells were then washed and stained with fluorescent-labeled CD86.

4T1 breast tumor = assay: 4T1 primary breast tumor growth in BALB/c mice; format: in vivo, mouse
Experimental: BALB/c mice were injected (SC) with 1×10^4 4 T1, 1×10^5 TS/A or 2×10^5 SM1 cells, respectively, in the left mammary pad on day 0. […] The control group received PBS injection. […] Tumor burden (tumor volume) was measured and recorded three times weekly. Animals were sacrificed when tumors reached a volume of 15 mm in diameter and the tumors harvested and weighed.
The therapeutic effect of systemic administration of synthetic, Tat-derived compositions in murine models of breast cancer was investigated. […]

IFN-γ = assay: ELISA analysis of IFN-γ production by immune spleen cells of 4T1 tumor-bearing mice; format: in vivo, mouse
Experimental: Splenocyte secretion of IFN-γ was assessed by an OptEIA™ ELISA kit (BD Biosciences). Briefly, spleen cells (1×10^5/well) from 4T1 tumor-bearing mice were cultured with or without 5×10^3/well mitomycin C (50 μg/ml)-treated 4T1 cells (used to provide tumor antigens) in DMEM at a 20:1 E:T (effector:[…]) in 96-well plates. Supernatants were collected after 72 hr and kept frozen at −80° C. until analysis without loss of activity. IFN-γ was measured in cell-free supernatants of duplicate wells by ELISA according to the manufacturer's instructions. Tumor-specific IFN-γ production was calculated by subtracting the background values measured in supernatants of spleen cells cultured with medium alone and optical density (OD) values were converted to pg/ml amounts of IFN-γ using a recombinant IFN-γ standard curve. Stimulation index (SI) was calculated as the ratio of IFN-γ in stimulated versus control cultures.
To determine whether cytotoxic T-lymphocytes play a role in tumor rejection induced by Nani-P2 therapy, an IFN-γ ELISA assay (FIG. 7) was performed to compare spleen cells of 4T1 tumor-bearing mice treated either without (Control) or with Nani-P2 (FIG. 7). Spleens were removed under sterile conditions and prepared as described elsewhere (duPre'S. et al. Exp. Mol. Path. 85:174-188, 2008). Briefly, spleens were homogenized and splenocytes, as a rich source of systemic cytolytic T cells and APCs, were co-cultured with mitomycin C-treated 4T1 stimulator cells to induce recall immune responses. Control wells were cultured with medium alone.

4T1 lung metastases = assay: Detection of 4T1 lung metastases; format: in vivo, mouse
Source text: Lungs were examined for 4T1 metastases as previously described (Pulaski B. et al. Cancer Res. 60:2710-2715, 2000). Primary 4T1 tumors that have been established for 2-3 weeks in BALB/c mice metastasize to the lungs in a very large majority of animals. Briefly, mice were sacrificed according to IACUC guidelines established at the start of the trials, the lungs were removed, and tumor nodules on the surface of the lungs were enumerated with the naked eye by two independent investigators blinded to the treatment protocols.
To further investigate the efficacy of Nani-P2 against established and metastatic breast cancer, 4T1 cells were injected SC in the abdominal mammary gland of mice and treatment was delayed until such time that the tumors had metastasized to the lungs and averaged 3.5 mm in size (FIG. 8A, day 13), corresponding to a 2.4 cm or stage T2 human breast tumor. Mice were followed for tumor growth (FIG. 8A) and lung metastases (FIG. 8B). […] This corresponded to a less aggressive appearance of primary tumor, as well as lung metastases that were on average much smaller in size (FIG. 8B).

[1] = Toxicity observed in treated mice; format: in vivo, mouse; settings: SC or IV 40 ng, multiple trials, multiple dosing schedules
4T1 cells = assay: Repeated dosing of Nani-P2 and cyclophosphamide in 4T1 tumor-bearing mice; format: in vivo, mouse
Experimental: Four groups of 10 BALB/c mice were implanted with 1×10^4 4 T1 cells SC into the mammary fat pad. Treatment was initiated when tumor diameters reached 4-5 mm, on day 10. Control mice were injected IV with PBS at 3 days intervals, while alternating treatment mice received 3 doses of drug every 3 days in rotating 10 day cycles. Tumor burden (tumor size mm^3) was calculated using a standard formula. CY (cyclophosphamide alone) mice were injected IP weekly with 80 mg/kg per mouse beginning on day 10. Cy/Nani-P2 (cyclophosphamide first followed by Nani-P2) mice were first injected IP with cyclophosphamide (80 mg/kg) at 3 days intervals for three doses starting at day 10 and then injected IV with Nani-P2 (40 ng) at 3 days intervals for three doses in rotation. The cycle of 3 doses of CY followed by 3 doses of Nani-P2 was repeated until day 50. Nani-P2/CY (Nani-P2 first followed by cyclophosphamide) mice were first injected IV with Nani-P2 (40 ng) at 3 day intervals for 3 doses starting on day 10 and then injected i.p. with cyclophosphamide at 3 day intervals in rotation. The cycle of 3 doses of Nani-P2 followed by 3 doses of CY was repeated until day 50.

PD-L1 = assay: IHC staining of primary 4T1 breast tumors for PD-L1; format: in vivo, mouse; settings: therapy initiated 7 days after inoculation, resected Day 29/30
Experimental: (§1) Female BALB/c mice were inoculated in the mammary fat pad with syngeneic and highly metastatic 4T1 breast cancer cells to model Stage IV human breast cancer. Nani-P2 immunotherapy was initiated 7 days after tumor cell inoculation. Tumors were assessed by caliper measurements throughout the study and resected on Day 29/30. Immunohistochemical staining (IHC) for PD-L1 and CD8 was performed on formalin-fixed, paraffin embedded specimens of primary 4T1 tumors.

[2] = system: tumor infiltrating CD8+ CTL; assay: IHC staining of primary 4T1 breast tumors for CD8; format: in vivo, mouse; settings: therapy initiated 7 days after inoculation; resected Day 29/30; listed as PIN-2
Experimental: as §1

[3] = Nani-P2 alternating with cyclophosphamide

B1: Nani-P2: Tat derivative polypeptide SEQ ID NO:3; TF SIVagmVer, cysteine-rich HIV-1, C-terminal SIVagmVer (protein)
chain: MDPKGEEDQDVSHQDLIKQYRKPRTACNNCYCKKCCFHCYACFLRKGLGITYHAFRTRRKKIASADRIPVPQQSISIRGRDSQTTQESQKKVEEQAKANLRISRKNLGDETRGPVGAGN
modifications: Tat derivative polypeptide
notes: TF SIVagmVer, cysteine-rich HIV-1, C-terminal SIVagmVer
Question: With B1 as the molecule, how does the “expression of CD86” value (Human monocytes) read?
Answer: higher expression of CD86 than either ISS (TLR) or LPS

Question: What about the “4T1 tumor volume difference versus control, 4 ng” value (4T1 breast tumor; 4 ng per mouse, four times over 21 days, p<0.1 as printed) of the same molecule?
Answer: highly significant

Question: And the “mice in complete remission, disease-free at 50 days” value (4T1 breast tumor; 40 ng IV weekly over three weeks from day 14)?
Answer: one animal underwent a complete remission; also recorded: One of 10

Question: And the “mice with regression of tumor at the initial treatment on day 14” value (4T1 breast tumor; 40 ng IV, established 4T1 tumors)?
Answer: 7/10

Question: And the “4T1 tumor volume difference versus control, 40 ng” value (4T1 breast tumor; 40 ng per mouse, four times over 21 days, p<0.01)?
Answer: highly significant

Question: And the “primary tumor burden of established 4T1 tumors versus PBS control” value (4T1 breast tumor; 40 ng weekly for three weeks beginning at day 14 (IV), p<0.01)?
Answer: statistically significant benefit in primary tumor suppression; also recorded: highly significant

Question: And the “4T1 tumor volume difference versus control starting at day 22” value (4T1 breast tumor; 400 ng SC days 0, 7, 14, 21, p<0.01)?
Answer: highly significant

Question: And the “4T1 tumor burden versus PBS control” value (4T1 breast tumor; 400 ng partially-purified, SC, days 0, 7, 14, 21 (Nani-P3 also 2 μg), from day 15, p<0.05)?
Answer: significantly reduced tumor burden; also recorded: significant

Question: And the “average decrease of 4T1 tumor burden at maximal effect” value (4T1 breast tumor; SC therapy begun on day 13, tumors about 5 mm in diameter)?
Answer: 52%

Question: What about the “average shrinkage of 4T1 tumor burden” value (4T1 breast tumor; SC therapy initiated on day 0 after tumor cell injection) of the same molecule?
Answer: 53%

Question: And the “effect of increasing the dose to 400 ng and 2 μg” value (4T1 breast tumor; SC, compared with 40 ng, data not shown)?
Answer: no further anti-tumor efficacy

Question: What about the “difference in primary tumor burden between Nani-P2 and Nani-P1-treated tumors” value (4T1 breast tumor; day 21 (final dosing), 400 ng SC, p<0.01) of the same molecule?
Answer: 18 mm^3

Question: What about the “dose giving significant 4T1 tumor growth inhibition” value (4T1 breast tumor; highly-purified, SC) of the same molecule?
Answer: ≤ 0.4 ng

Question: What about the “4T1 breast tumor growth inhibitory effect, dose relation” value (4T1 breast tumor; highly-purified, SC, 0.4 ng to 40 ng per dose) of the same molecule?
Answer: dose-dependent

Question: What about the “IFN-γ production of spleen cells versus control mice” value (IFN-γ; 40 ng SC weekly for 4 weeks, spleens day 33, 72 hr culture, all conditions of assay) of the same molecule?
Answer: significantly (p<0.05*) higher

Question: And the “baseline levels of INF-γ secreted by splenocytes versus PBS control mice” value (IFN-γ; no in vitro restimulation)?
Answer: 8 -fold

Question: What about the stimulation index (IFN-γ; tumor stimulators + IL4 + GM-CSF, versus control) of the same molecule?
Answer: 53

Question: What about the “lung metastases versus controls” value (4T1 lung metastases; 4T1 model) of the same molecule?
Answer: significantly inhibited the development of spontaneous 4T1 lung metastases; also recorded: dramatic reduction in the visible number of lung metastases

Question: And the “average number of grossly visible tumor nodules in the lungs” value (4T1 lung metastases; treated IV, treatment delayed to day 13, p<0.01)?
Answer: seven

Question: What about the toxicity [1] of the same molecule?
Answer: no toxicity was observed

Question: And the “mice in partial remission at day 50” value (4T1 cells; [3])?
Answer: 9/10

Question: What about the “mice in total remission at day 50” value (4T1 cells; [3]) of the same molecule?
Answer: 3/10

Question: And the “survival benefit versus weekly cyclophosphamide” value (4T1 cells; Nani-P2 bolus treatment alternating with cyclophosphamide, p=0.0001)?
Answer: highly statistically significant

Question: And the “PD-L1 expression in primary 4T1 tumors versus controls” value (PD-L1)?
Answer: reduced

Question: What about the “PD-L1 expression in primary 4T1 tumors versus controls” value (PD-L1; listed as PIN-2) of the same molecule?
Answer: reduced PD-L1 presence near the tumor edge

Question: And the “tumor infiltrating CD8+ CTL versus PBS control” value [2]?
Answer: infiltrating CD8+ CTL advancing around tumor edge; also recorded: significant increase in the population of tumor infiltrating CD8+ CTL
